Laboratory results reported in publication PMC4434759.

Target: PsIAA4 PB1^AM3 (D151A/D153A/D155A) (pea (Pisum sativum))
Test: ITC

Kd: 6.4 µM
stoichiometry N: 1
Substance: PsIAA4 PB1^BM3 (K96A/R106A/K107A) (domain or fragment)
